The target in one assay is T1, PCSK9 (human, UniProt Q8NBP7 31-692, biotin on lysines (Sulfo-NHS-LC-biotin)).
T1 construct: also called PCSK9FL; hPCSK9 FL
Kind of assay: SPR. The conditions noted are these: both partners purified.

Assay [1] deals with T2, PCSK9ΔCRD (PCSK9 lacking the C-terminal Cys-rich domain CRD) (human, UniProt Q8NBP7 31-452, biotin on lysines (Sulfo-NHS-LC-biotin)).
T2 construct: also called PCSK9DCRD; PCSK9dCRDTEV
Kind of assay: ELISA. The following applies: one partner purified. For orientation: ELISA stands for enzyme-linked immunosorbent assay.

As a reminder, the Kd is a measure of binding affinity in units of concentration. High values mean lower affinity, low ones higher affinity.

T2 sequence (Q8NBP7 31-452, stated change not applied): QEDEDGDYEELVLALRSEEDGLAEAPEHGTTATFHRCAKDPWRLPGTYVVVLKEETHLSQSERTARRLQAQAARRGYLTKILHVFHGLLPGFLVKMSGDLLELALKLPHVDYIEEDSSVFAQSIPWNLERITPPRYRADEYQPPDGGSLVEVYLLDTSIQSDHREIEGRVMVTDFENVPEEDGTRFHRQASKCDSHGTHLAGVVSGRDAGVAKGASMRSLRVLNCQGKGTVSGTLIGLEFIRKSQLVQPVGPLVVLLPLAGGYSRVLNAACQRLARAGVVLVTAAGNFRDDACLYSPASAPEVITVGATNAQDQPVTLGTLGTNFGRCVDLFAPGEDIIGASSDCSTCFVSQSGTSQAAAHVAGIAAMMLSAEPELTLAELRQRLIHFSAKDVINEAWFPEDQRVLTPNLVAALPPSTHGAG
T1 sequence (Q8NBP7 31-692): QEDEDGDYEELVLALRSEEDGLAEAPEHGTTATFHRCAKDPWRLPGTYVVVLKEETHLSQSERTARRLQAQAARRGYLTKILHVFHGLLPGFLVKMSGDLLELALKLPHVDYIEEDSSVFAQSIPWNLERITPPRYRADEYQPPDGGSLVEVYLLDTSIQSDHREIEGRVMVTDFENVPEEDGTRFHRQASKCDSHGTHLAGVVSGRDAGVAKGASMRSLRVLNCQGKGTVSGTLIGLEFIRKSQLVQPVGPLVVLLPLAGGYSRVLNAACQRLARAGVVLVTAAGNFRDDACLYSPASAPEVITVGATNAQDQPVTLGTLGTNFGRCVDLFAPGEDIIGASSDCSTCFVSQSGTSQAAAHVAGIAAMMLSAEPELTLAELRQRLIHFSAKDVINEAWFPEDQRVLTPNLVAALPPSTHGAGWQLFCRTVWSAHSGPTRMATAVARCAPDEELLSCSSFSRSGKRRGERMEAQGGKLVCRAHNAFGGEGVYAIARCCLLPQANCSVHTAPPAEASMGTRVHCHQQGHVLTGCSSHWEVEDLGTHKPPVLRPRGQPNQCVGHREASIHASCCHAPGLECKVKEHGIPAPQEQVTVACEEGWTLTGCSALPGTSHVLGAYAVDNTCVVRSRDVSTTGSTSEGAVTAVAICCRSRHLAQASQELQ

As to ECKGKGAKCSYYMGIDKGYVNYCCTGSCRSGKC (designed binder, Conotoxin-MVIIA scaffold) [PCSK9_CnTx1], in the assay with PCSK9, the Kd turned out to be 4.5 µM.
As for ECKGKGAKCSYYMGIDKGYVNYCCTGSCRSGKC (designed binder, Conotoxin-MVIIA scaffold) [PCSK9_CnTx1 displayed on M13 phage], in assay [1], the ELISA is 2 and the s/n Ratio is 29.7.

The values are drawn from publication PMC10977697 (PLOS ONE, 2024).
